Measured values published in patent US20030224390A1, “Method of identifying conformation-sensitive binding peptides and uses thereof” (Karo Bio AB, priority 2000, published 2003).

T1: Glucocorticoid Receptor (GR) (Homo sapiens, UniProt P04150)
T1 construct: peptides to GR in the yeast based system using full-length receptor; expressed in transfected cells; host or cells: yeast
T1 sequence (P04150 1-777): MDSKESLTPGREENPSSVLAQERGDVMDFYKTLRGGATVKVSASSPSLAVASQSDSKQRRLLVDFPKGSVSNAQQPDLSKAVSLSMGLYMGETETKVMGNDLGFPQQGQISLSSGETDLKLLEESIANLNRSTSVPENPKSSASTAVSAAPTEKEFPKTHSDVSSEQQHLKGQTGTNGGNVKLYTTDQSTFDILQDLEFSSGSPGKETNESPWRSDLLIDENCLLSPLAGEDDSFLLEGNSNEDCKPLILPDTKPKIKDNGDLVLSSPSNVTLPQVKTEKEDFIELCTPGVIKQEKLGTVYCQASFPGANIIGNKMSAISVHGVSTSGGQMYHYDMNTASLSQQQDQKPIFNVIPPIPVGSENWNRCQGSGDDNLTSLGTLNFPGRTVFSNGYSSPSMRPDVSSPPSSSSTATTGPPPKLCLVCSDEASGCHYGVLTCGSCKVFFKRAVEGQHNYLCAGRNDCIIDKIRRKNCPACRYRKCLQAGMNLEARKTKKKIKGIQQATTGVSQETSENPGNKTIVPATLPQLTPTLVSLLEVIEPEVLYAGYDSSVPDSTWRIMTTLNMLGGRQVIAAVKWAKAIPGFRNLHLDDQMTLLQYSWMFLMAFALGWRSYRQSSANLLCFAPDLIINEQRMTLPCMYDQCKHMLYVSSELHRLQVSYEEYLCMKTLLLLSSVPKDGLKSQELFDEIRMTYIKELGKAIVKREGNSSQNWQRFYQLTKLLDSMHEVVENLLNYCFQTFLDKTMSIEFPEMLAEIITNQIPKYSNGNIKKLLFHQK

T2: glucocorticoid receptor (Homo sapiens, UniProt P04150)
T2 construct: expressed in transfected cells; host or cells: Huh-7 cells
T2 sequence (P04150 1-777): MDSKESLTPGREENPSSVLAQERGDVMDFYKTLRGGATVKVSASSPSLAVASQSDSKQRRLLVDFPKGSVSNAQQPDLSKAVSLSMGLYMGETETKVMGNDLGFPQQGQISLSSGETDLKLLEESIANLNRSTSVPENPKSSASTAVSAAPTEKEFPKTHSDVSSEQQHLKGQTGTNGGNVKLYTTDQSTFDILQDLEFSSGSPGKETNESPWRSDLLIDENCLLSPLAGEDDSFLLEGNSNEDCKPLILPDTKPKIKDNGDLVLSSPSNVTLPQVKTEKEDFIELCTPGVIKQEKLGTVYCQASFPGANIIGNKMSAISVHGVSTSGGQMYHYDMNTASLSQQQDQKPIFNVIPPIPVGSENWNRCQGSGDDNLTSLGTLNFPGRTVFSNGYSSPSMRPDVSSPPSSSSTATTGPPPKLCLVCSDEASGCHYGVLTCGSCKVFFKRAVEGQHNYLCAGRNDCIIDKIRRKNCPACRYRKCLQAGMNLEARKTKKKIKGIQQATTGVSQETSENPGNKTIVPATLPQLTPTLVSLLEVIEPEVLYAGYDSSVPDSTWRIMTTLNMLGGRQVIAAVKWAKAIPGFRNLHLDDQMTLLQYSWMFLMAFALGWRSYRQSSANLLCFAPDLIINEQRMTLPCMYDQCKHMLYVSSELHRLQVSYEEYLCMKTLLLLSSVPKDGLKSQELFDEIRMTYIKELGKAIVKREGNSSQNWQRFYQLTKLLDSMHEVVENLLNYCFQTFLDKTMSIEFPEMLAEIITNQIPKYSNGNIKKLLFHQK

T3: ER β (immobilized, in vitro phage assays), Q92731
T3 chain: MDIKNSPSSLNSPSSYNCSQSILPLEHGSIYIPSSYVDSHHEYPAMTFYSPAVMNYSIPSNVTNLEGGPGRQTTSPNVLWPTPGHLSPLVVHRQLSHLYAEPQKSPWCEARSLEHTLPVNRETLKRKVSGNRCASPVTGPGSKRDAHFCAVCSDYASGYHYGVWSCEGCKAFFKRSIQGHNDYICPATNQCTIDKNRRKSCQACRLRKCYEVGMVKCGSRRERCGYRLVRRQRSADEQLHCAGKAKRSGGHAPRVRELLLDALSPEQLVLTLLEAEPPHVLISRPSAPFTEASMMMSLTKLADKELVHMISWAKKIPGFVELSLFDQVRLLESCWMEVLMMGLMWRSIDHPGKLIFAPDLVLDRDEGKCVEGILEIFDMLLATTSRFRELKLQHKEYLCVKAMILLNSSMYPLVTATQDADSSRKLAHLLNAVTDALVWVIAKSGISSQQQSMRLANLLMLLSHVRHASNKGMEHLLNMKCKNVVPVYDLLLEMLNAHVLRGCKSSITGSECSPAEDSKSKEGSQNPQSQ


How the values were obtained:
[1] = biological target: T1, Glucocorticoid Receptor (GR); test: Yeast based two-hybrid system with full-length GR (Example 503); assay type: cell-based
Description: (§1) We have performed a limited amount of in vivo screenings for peptides to GR in the yeast based system using full-length receptor and either dexamethasone or medroxyprogesterone acetate as ligands. We have a single peptide sequence that we have followed up on based on its specificity profile in yeast. This peptide was isolated on MPA liganded GR, and is termed GRMPA. Its sequence is as follows: […] (SEQ ID NO:268).

glucocorticoid receptor = biological target: T2, glucocorticoid receptor; test: Mammalian cell based peptide/GR interaction assay in Huh-7 cells, 96-/384-well luciferase
Description: as §1
We have isolated numerous peptides using phage display to the GR ligand binding domain and have formatted cell based assays in mammalian cells for screening large compound sets. We have formatted the assay as stated above for 96-well plates and for 384-well plates. To format the assay to 384-well plates the number of cells per well were scaled down to 5,000 Huh-7 cells per well. Similar ratios of DNA constructs and lipection reagents were used in both assays for transfections prior to seeding the cells into the assay plates. We have also carried out a screen of a 60,000 compound set with one of the phage display isolated peptides in this mammalian cell based format. This peptide interacts with the glucocorticoid receptor in the presence of both agonists (e.g. fluticasone propionate and dexamethasone) and antagonists (RU486). For the compound screen cells were transfected in suspension with DNA constructs as described above prior to seeding 5,000 cells per well. […]

[2] = biological target: T3, ER β (immobilized, in vitro phage …); test: phage ELISA; clomiphene 10 µM
[3] = biological target: T3, ER β (immobilized, in vitro phage …); test: phage ELISA; ICI 182,780 1 µM
[4] = biological target: T3, ER β (immobilized, in vitro phage …); test: phage ELISA; raloxifene 1 µM
[5] = biological target: T3, ER β (immobilized, in vitro phage …); test: phage ELISA; 4-OH tamoxifen 1 µM

Molecule | Interaction with GR in the presence of partial agonists ([1]; MPA, cortivazol, and deoxycorticosterone) | Interaction with GR in the presence of antagonists ([1]; RU486) | Interaction with GR in the presence of full agonists ([1]; fluticasone propionate and dexamethasone) | Interaction with GR in the presence of all ligands (agonists, partial agonists, and antagonists) (glucocorticoid receptor) | phage ELISA grade [2] | phage ELISA grade [3] | phage ELISA grade [4] | phage ELISA grade [5]
EFVARYGQLLGWRHPCS [GRMPA] | interacted | interacted | not | interacted |  |  |  | 
SSNHQSSRLIELLSR (modifications not checked) [Phage # 4 (Table 2)] |  |  |  |  | 0 | 0 | 0 | 0
